Data taken from patent US20090022728A1 (RINAT NEUROSCIENCE, published 2009).
Like-named read-outs stand apart in the source and are kept apart here.

What was measured:
[1] = target: T1, biotinylated Aβ1-40 peptide (biotinylated (N-biotinylated in Example 7)); assay: SPR, Fab over Aβ1-40 on SA chip
T1 construct: captured on streptavidin (SA) chip; also called Biotinylated Aβ peptide 1-40; Aβ1-40 on SA chip
Experimental: (§1) Affinities of 9TL Fab fragment and its variants Fab fragments were determined by Surface Plasmon Resonance (SPR) system (BIAcore 3000™, BIAcore, Inc., Piscaway, N.J.). SA chips (streptavidin) were used according to the supplier's instructions. Biotinylated Aβ peptide 1-40 was diluted into HBS-EP (10 mM HEPES pH 7.4, 150 mM NaCl, 3 mM EDTA, 0.005% P20) and injected over the chip at a concentration of 0.005 mg/mL. Using variable flow time across the individual chip channels, two ranges of antigen density were achieved: 10-200 response units (RU) for detailed kinetic studies and 500-600 RU for concentration studies and screening. […] HBS-EP buffer was used as running buffer for all the BIAcore assays. […] The concentrations of the Fab proteins were determined by ELISA and/or SDS-PAGE electrophoresis using a standard Fab of known concentration (determined by amino acid analysis). Kinetic association rates (kₒₙ) and dissociation rates (koff) were obtained simultaneously by fitting the data to a 1:1 Langmuir binding model (Karlsson, R. Roos, H. Fagerstam, L. Petersson, B. (1994). Methods Enzymology 6. 99-110) using the BIAevaluation program. Equilibrium dissociation constant (KD) values were calculated as koff/kₒₙ.

[2] = target: T1, biotinylated Aβ1-40 peptide; assay: SPR, Fab over Aβ1-40 on SA chip; remark: listed apart in the source
Target sequence in this assay (peptide, as listed by the source): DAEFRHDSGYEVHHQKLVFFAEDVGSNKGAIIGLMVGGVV

Aβ1-43 peptide = target: T2, Aβ1-43 peptide; assay: SPR peptide competition, Aβ1-40 on SA chip
T2 construct: also called 1-43 (WT)
Experimental: (§2) To determine the epitope on Aβ polypeptide that is recognized by antibody 9TL, Surface Plasmon Resonance (SPR, Biacore 3000) binding analysis was used. Aβ₁₋₄₀ polypeptide coupled to biotin (Global Peptide Services, CO) was immobilized on a streptavidin-coated chip (SA chip). The binding of Aβ antibodies Fab fragments (at 50 nM) to the immobilized Aβ₁₋₄₀ in the absence or presence of different soluble fragments of the Aβ peptide (at […], from American Peptide Company Inc., CA). Amino acid sequences of Aβ₁₋₄₀, Aβ₁₋₄₂, and Aβ₁₋₄₃ are shown in below in Table 4. The Aβ peptides which displaced binding of antibody 9TL Fab fragment to Aβ₁₋₄₀ were Aβ₂₈₄₀, Aβ₁₋₄₀, Aβ₃₃₋₄₀, and Aβ₁₇₋₄₀, respectively (FIG. 2). Thus, antibody 9TL binds to a C-terminal peptide (33-40) of Aβ₁₋₄₀.

Aβ28-40 peptide = target: T3, Aβ28-40 peptide; assay: SPR peptide competition, Aβ1-40 on SA chip
T3 peptide: KGAIIGLMVGGVV
Experimental: as §2

Aβ28-42 peptide = target: T4, Aβ28-42 peptide; assay: SPR peptide competition, Aβ1-40 on SA chip
T4 peptide: KGAIIGLMVGGVVIA
Experimental: as §2

Aβ33-40 peptide = target: T5, Aβ33-40 peptide; assay: SPR peptide competition, Aβ1-40 on SA chip
T5 construct: also called C-terminal peptide (33-40) of Aβ1-40
T5 peptide: GLMVGGVV
Experimental: as §2

Aβ17-40 peptide = target: T6, Aβ17-40 peptide; assay: SPR peptide competition, Aβ1-40 on SA chip
T6 peptide: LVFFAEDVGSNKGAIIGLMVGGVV
Experimental: as §2

[3] = target: T1, biotinylated Aβ1-40 peptide; assay: SPR, Fab over Aβ1-40 on SA chip; KD=koff/kon
[4] = target: T1, biotinylated Aβ1-40 peptide; assay: SPR, Fab over Aβ1-40 on SA chip; Fab fragment; Aβ1-40 immobilized on SA chip
Experimental: as §1, with “Kinetic association rates (kₒₙ) and dissociation rates (koff) were obtained simultaneously by fitting the data to a 1:1 Langmuir binding model (Karlsson, R. Roos, H. Fagerstam, L. Petersson, B. (1994). Methods Enzymology 6. 99-110) using the BIAevaluation program.” left out
All amino acid substitutions of the variants shown in Table 3 are described relative to the sequence of 9TL. KD and other kinetic parameters were determined by BIAcore analysis described above with Aβ₁₋₄₀ immobilized on SA chip.

T2 sequence (peptide, as listed by the source): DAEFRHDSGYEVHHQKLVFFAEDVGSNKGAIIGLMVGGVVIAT

B1: 9TL Fab fragment (Fab, V domains shown)
VH: QVQLVQSGAEVKKPGASVKVSCKASGYYTEAYYIHWVRQAPGQGLEWMGRIDPATGNTKYAPRLQDRVTMTRDTSTSTVYMELSSLRSEDTAVYYCASLYSLPVYWGQGTTVTVSS
VL: DVVMTQSPLSLPVTLGQPASISCKSSQSLLYSDAKTYLNWFQQRPGQSPRRLIYQISRLDPGVPDRFSGSGSGTDFTLKISRVEAEDVGVYYCLQGTHYPVLFGQGTRLEIKR
notes: Fab from E. coli with human IgG2 CH1 (P01859) and human kappa constant domain (CAA09181)
Kd [1]: 1.13 nM | koff [1]: 0.000359 s⁻¹ | kon [1]: 318000 M⁻¹ s⁻¹ | koff [2]: 0.000359 s⁻¹ | binding result (Aβ1-43 peptide): no binding (tested: 10 µM (FIG. 2 legend; text prints 10 pM)) | binding result (Aβ28-40 peptide): binds | binding result (Aβ28-42 peptide): no binding (tested: 10 µM (FIG. 2 legend; text prints 10 pM)) | binding result (Aβ33-40 peptide): binds | binding result (Aβ17-40 peptide): binds | Kd [3]: 1.13 nM | kon [4]: 318000 M⁻¹ s⁻¹
